This assay concerns the target T1, mouse PD-1 expressed on HEK293 cells (mouse, UniProt Q02242 25-288).
T1 construct: whole, on cells; also called HEK293-mPD-1; mPD-1 HEK293 cells
T1 sequence (looked up): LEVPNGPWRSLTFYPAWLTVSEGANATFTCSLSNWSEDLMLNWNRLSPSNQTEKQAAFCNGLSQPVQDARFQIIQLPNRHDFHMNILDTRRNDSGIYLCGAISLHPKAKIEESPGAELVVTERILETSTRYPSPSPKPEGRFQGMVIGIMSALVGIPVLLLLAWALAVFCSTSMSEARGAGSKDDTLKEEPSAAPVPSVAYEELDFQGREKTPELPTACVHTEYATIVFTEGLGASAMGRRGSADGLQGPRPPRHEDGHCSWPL
As to the kind of experiment: flow cytometry on mPD-1 HEK293 cells, titration from 150 nM. (In flow cytometry, cells or beads pass a laser one at a time.)

One molecule from patent publication US20170044259A1 (CYTOMX THERAPEUTICS, published 2017) can be followed below.

Description: About 100,000 mPD-1 HEK293 cells were transferred to a U-bottom 96-well plate. […] Both were incubated for 1 hour on ice and cells were washed 3 times. […] Both binding and blocking were incubated for 30 minutes on ice and were washed and read on a flow cytometer (MACSQuant).

B1: J43v2 mIgG2a (antibody, V domains shown)
VH: EVRLLESGGGLVKPEGSLKLSCVASGFTFSDYFMSWVRQAPGKGLEWVAHIYTKSYNYATYYSGSVKGRFTISRDDSRSMVYLQMNNLRTEDTATYYCTRDGSGYPSLDFWGQGTQVTVSS
VL: YELTQPPSASVNVGETVKITCSGDQLPKYFADWFHQRSDQTILQVIYDDNKRPSGIPERISGSSSGTTATLTIRDVRAEDEGDYYCFSGYVDSDSKLYVFGSGTQLTVLG
notes: also called J43 m2a; J43v2 m2a
For the molecule B1, the binding result is recorded as “binds”.
